Data published in patent publication US20220298217A1 (FLAGSHIP PIONEERING INNOVATIONS VI, published 2022).
Substitutions are numbered along the chain they refer to. Several values for one entry are separate records, joined by “and”; a condition that tells them apart may be missing. Equal entries are not always repeated.

Target: T1, Flag-PTHR1-YFP (parathyroid hormone receptor 1) expressed in transfected HEK293T cells (human, UniProt Q03431 27-593)
T1 sequence (looked up): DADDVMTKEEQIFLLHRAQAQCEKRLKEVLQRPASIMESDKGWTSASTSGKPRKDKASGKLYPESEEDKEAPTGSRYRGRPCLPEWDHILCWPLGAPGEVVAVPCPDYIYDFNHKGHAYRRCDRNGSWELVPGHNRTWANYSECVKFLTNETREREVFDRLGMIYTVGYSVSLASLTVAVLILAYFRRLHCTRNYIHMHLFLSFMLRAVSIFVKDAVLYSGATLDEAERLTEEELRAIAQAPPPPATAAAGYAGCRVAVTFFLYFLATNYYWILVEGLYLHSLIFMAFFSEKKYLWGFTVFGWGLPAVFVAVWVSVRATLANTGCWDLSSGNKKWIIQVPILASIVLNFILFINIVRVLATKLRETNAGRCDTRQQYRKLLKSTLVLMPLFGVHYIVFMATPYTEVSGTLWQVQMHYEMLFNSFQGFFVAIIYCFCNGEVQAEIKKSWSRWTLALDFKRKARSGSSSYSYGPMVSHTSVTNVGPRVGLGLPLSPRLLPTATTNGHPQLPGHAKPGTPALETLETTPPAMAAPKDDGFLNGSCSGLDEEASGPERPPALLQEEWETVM
Test: cell-based or functional assay

B1: R2-26 (peptide)
peptide: AVAEIQLMHQRAKWGLELELKEKLRKILEDVY
For B1, the “arrestin 1, plate 17: -log10EC50” value was -7.89 -log10EC50 and -7.57 -log10EC50 and the “arrestin 2, plate 18: -log10EC50” value was -7.79 -log10EC50 and -7.9 -log10EC50.

B2: R2-27 (peptide)
peptide: AVAEIQLMHQRAKWKLDLELAVSLRKILEDVY
For B2, the “arrestin 1, plate 17: -log10EC50” value was -7.92 -log10EC50 and -8.02 -log10EC50 and the “arrestin 2, plate 18: -log10EC50” value was -7.65 -log10EC50 and -8.08 -log10EC50.

B3: R2-8 (peptide)
peptide: SVMMIQVMHDLAKIRAEYELREMLLRLLEEIF
For B3, the “arrestin 1, plate 9: -log10EC50” value was -8.43 -log10EC50, the “arrestin 1, plate 9: Emax” value was 6.29 and the “arrestin 2, plate 10: -log10EC50” value was -9.46 -log10EC50.

B4: R2-2 (peptide)
peptide: B3 peptide with S1G, M3A, V7I, L11I
B4 was tested, and the “arrestin 1, plate 7: -log10EC50” value was -14 -log10EC50 and -12.2 -log10EC50 and the “arrestin 2, plate 8: -log10EC50” value was 5.1 -log10EC50 and -14.8 -log10EC50.

B5: R2-44 (peptide)
peptide: AVAEIQLMHQRAKWSLREELEKLLKELLKEYI
With B5 the “arrestin 1, plate 13: -log10EC50” value was -8.54 -log10EC50, the “arrestin 1, plate 13: Emax” value was 7.41 and the “arrestin 1, plate 23: -log10EC50” value was -7.82 -log10EC50 and -8.55 -log10EC50. The “arrestin 2, plate 24: -log10EC50” value was -7.99 -log10EC50 and -5.45 -log10EC50.

B6: R2-47 (peptide)
peptide: AVAEIQLMHQRAKWDVLIELAKLLAELLRRYH
In the case of B6, the “arrestin 1, plate 13: -log10EC50” value is reported as -5.84 -log10EC50, the “arrestin 1, plate 13: Emax” value is reported as 15.7 and the “arrestin 1, plate 23: -log10EC50” value is reported as -6.19 -log10EC50 and -5.44 -log10EC50. The “arrestin 2, plate 24: -log10EC50” value was -5.46 -log10EC50 and -5.86 -log10EC50.

B7: R2-28 (peptide)
peptide: AVAEIQLMHQRAKWGLDLELAVKLQEILKDVL
With B7 the “arrestin 1, plate 17: -log10EC50” value was -15 -log10EC50, the “arrestin 1, plate 17: Emax” value was 6.35 and the “arrestin 2, plate 18: -log10EC50” value was -6.1 -log10EC50. The “arrestin 2, plate 18: Emax” value was 18.5.

B8: R2-36 (peptide)
peptide: AVAEIQLMHQRAKWKLELELKAFLDQILKDVL
For B8, the “arrestin 1, plate 9: -log10EC50” value was -8.83 -log10EC50, the “arrestin 1, plate 9: Emax” value was 7.4 and the “arrestin 1, plate 19: -log10EC50” value was -8.33 -log10EC50 and -8.54 -log10EC50. The “arrestin 2, plate 20: -log10EC50” value was -8.27 -log10EC50 and -8.6 -log10EC50.

B9: R2-46 (peptide)
peptide: AVAEIQLMHQRAKWSILEELLKILTALLDEYI
B9 was tested, and the “arrestin 1, plate 13: -log10EC50” value was -6.25 -log10EC50, the “arrestin 1, plate 13: Emax” value was 17.3 and the “arrestin 1, plate 23: -log10EC50” value was -6.35 -log10EC50 and -6.4 -log10EC50. The “arrestin 2, plate 24: -log10EC50” value was -6.26 -log10EC50 and -6.27 -log10EC50.

B10: LA-PM-FL (R1-81) (peptide)
peptide: AVAEIQLMHQRAKWIQDARRRAFLHKLIAEIH
With B10 the “arrestin 1, plate 1: -log10EC50” value was -8.58 -log10EC50 and -8.76 -log10EC50 and -8.45 -log10EC50 and the “arrestin 2, plate 2: -log10EC50” value was -8.52 -log10EC50 and -8.51 -log10EC50 and -8.44 -log10EC50.

B11: R2-30 (peptide)
peptide: AVAEIQLMHQRAKWLEELKLKDDLRKILEDVY
B11 was tested, and the “arrestin 1, plate 17: -log10EC50” value was -7.88 -log10EC50 and -8.28 -log10EC50 and the “arrestin 2, plate 18: -log10EC50” value was -7.92 -log10EC50 and -8.3 -log10EC50.

B12: R2-25 (peptide)
peptide: AVAEIQLMHQRAKWKLELELKVKLLEILKDVY
With B12 the “arrestin 1, plate 15: -log10EC50” value was -8.27 -log10EC50 and -8.59 -log10EC50 and the “arrestin 2, plate 16: -log10EC50” value was -8.37 -log10EC50 and -8.76 -log10EC50.

B13: R2-29 (peptide)
peptide: AVAEIQLMHQRAKWKLELELKEKIRKLLEDLL
In the case of B13, the “arrestin 1, plate 17: -log10EC50” value is reported as -8.15 -log10EC50 and -8.77 -log10EC50 and the “arrestin 2, plate 18: -log10EC50” value is reported as -8.39 -log10EC50 and -8.46 -log10EC50.

B14: R2-37 (peptide)
peptide: AVAEIQLMHQRAKWEIQEIGIKITLELLKEYI
In the case of B14, the “arrestin 1, plate 9: -log10EC50” value is reported as -5.08 -log10EC50, the “arrestin 1, plate 9: Emax” value is reported as 19.4 and the “arrestin 1, plate 19: -log10EC50” value is reported as -3.6 -log10EC50 and -6.48 -log10EC50. The “arrestin 2, plate 20: -log10EC50” value was -6.3 -log10EC50 and -6.41 -log10EC50.

B15: R2-33 (peptide)
peptide: AVAEIQLMHQRAKWLNELRLKEEMRKILEDVY
With B15 the “arrestin 1, plate 9: -log10EC50” value was -8.23 -log10EC50, the “arrestin 1, plate 9: Emax” value was 7.38 and the “arrestin 1, plate 19: -log10EC50” value was -7.99 -log10EC50 and -8.4 -log10EC50. For the same binder, the “arrestin 2, plate 10: -log10EC50” value was -8.31 -log10EC50 and the “arrestin 2, plate 20: -log10EC50” value was -8.09 -log10EC50 and -8.12 -log10EC50.

B16: R2-45 (peptide)
peptide: AVAEIQLMHQRAKWGLEIELLKLLLSLLKEYI
In the case of B16, the “arrestin 1, plate 13: -log10EC50” value is reported as -6.32 -log10EC50, the “arrestin 1, plate 13: Emax” value is reported as 20.4 and the “arrestin 1, plate 23: -log10EC50” value is reported as -6.33 -log10EC50 and -6.27 -log10EC50. The “arrestin 2, plate 24: -log10EC50” value was -6.47 -log10EC50 and -6.59 -log10EC50.

B17: R2-31 (peptide)
peptide: AVAEIQLMHQRAKWGLDLELRARLREILRDVY
For B17, the “arrestin 1, plate 17: -log10EC50” value was -8 -log10EC50 and -8.53 -log10EC50 and the “arrestin 2, plate 18: -log10EC50” value was -8.12 -log10EC50 and -8.18 -log10EC50.

B18: I1 (R1-100) (peptide)
peptide: AVAEIQLMHQRAKWELEYELFEMFLKLLEEIF
In the case of B18, the “arrestin 1, plate 7: -log10EC50” value is reported as -6.22 -log10EC50 (2×) and -6.24 -log10EC50 and the “arrestin 2, plate 8: -log10EC50” value is reported as -5.41 -log10EC50 and -7.67 -log10EC50 and -6.27 -log10EC50.

B19: R2-35 (peptide)
peptide: AVAEIQLMHQRAKWGVELQLKVDLRRILEDVY
With B19 the “arrestin 1, plate 9: -log10EC50” value was -3.53 -log10EC50, the “arrestin 1, plate 9: Emax” value was 16.9 and the “arrestin 1, plate 19: -log10EC50” value was -6.57 -log10EC50 and -7.44 -log10EC50. The “arrestin 2, plate 20: -log10EC50” value was -7.67 -log10EC50 and -7.82 -log10EC50.

B20: R2-43 (peptide)
peptide: AVAEIQLMHQRAKWELQEIGIAITLRLLARYI
In the case of B20, the “arrestin 1, plate 13: -log10EC50” value is reported as -8.31 -log10EC50, the “arrestin 1, plate 13: Emax” value is reported as 7.23 and the “arrestin 1, plate 23: -log10EC50” value is reported as -6.3 -log10EC50 and -8.03 -log10EC50. The “arrestin 2, plate 24: -log10EC50” value was -6.24 -log10EC50 and -7.91 -log10EC50.

B21: R2-42 (peptide)
peptide: AVAEIQLMHQRAKWAIQEIGIKITRELLERYL
With B21 the “arrestin 1, plate 11: -log10EC50” value was -7.98 -log10EC50, the “arrestin 1, plate 11: Emax” value was 7.87 and the “arrestin 1, plate 21: -log10EC50” value was -4.99 -log10EC50 and -7.96 -log10EC50. For the same binder, the “arrestin 2, plate 22: -log10EC50” value was -7.63 -log10EC50 and -8.09 -log10EC50.

B22: I3 (R1-97) (peptide)
peptide: AVAEIQLMHQRAKWELEFELFREFLKLLVDFF
For B22, the “arrestin 1, plate 5: -log10EC50” value was -5.38 -log10EC50 and -8.1 -log10EC50 and -6.02 -log10EC50, the “arrestin 1, plate 25: -log10EC50” value was -11.5 -log10EC50 and the “arrestin 1, plate 25: Emax” value was 10.3. The “arrestin 2, plate 6: -log10EC50” value was -6.2 -log10EC50 and -5.16 -log10EC50 and -6.19 -log10EC50, the “arrestin 2, plate 26: -log10EC50” value was -6.36 -log10EC50 and the “arrestin 2, plate 26: Emax” value was 21.5.

B23: R2-39 (peptide)
peptide: AVAEIQLMHQRAKWELQEIGIKITLDLLEAYL
B23 was tested, and the “arrestin 1, plate 11: -log10EC50” value was 2.64 -log10EC50, the “arrestin 1, plate 11: Emax” value was 15.4 and the “arrestin 1, plate 21: -log10EC50” value was -6.11 -log10EC50 and -6.23 -log10EC50. The “arrestin 2, plate 22: -log10EC50” value was -6.95 -log10EC50 and -6.4 -log10EC50.

B24: R2-34 (peptide)
peptide: AVAEIQLMHQRAKWRLEIELLKKLKEILKDVY
In the case of B24, the “arrestin 1, plate 9: -log10EC50” value is reported as -8.56 -log10EC50, the “arrestin 1, plate 9: Emax” value is reported as 7.29 and the “arrestin 1, plate 19: -log10EC50” value is reported as -8.18 -log10EC50 and -8.48 -log10EC50. The “arrestin 2, plate 20: -log10EC50” value was -8.09 -log10EC50 and -8.34 -log10EC50.
